# Molecular target: FGFR1 (UniProt P11362)
# Assay: phosphorylation enrichment, bacterial display (enrichment ratio); higher = better substrate or ligand; peptides without Tyr show the background
# 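Note: 11-residue human phosphosite peptides and single-mutation variants displayed on the E. coli surface, counted by deep sequencing, each peptide's frequency after selection divided by its frequency in the unselected input library; frequency after pTyr selection over input frequency; kinase dosed for 20-30% of maximal phosphorylation in three min.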
# Sequence of FGFR1 (P11362 whole entry, looked up): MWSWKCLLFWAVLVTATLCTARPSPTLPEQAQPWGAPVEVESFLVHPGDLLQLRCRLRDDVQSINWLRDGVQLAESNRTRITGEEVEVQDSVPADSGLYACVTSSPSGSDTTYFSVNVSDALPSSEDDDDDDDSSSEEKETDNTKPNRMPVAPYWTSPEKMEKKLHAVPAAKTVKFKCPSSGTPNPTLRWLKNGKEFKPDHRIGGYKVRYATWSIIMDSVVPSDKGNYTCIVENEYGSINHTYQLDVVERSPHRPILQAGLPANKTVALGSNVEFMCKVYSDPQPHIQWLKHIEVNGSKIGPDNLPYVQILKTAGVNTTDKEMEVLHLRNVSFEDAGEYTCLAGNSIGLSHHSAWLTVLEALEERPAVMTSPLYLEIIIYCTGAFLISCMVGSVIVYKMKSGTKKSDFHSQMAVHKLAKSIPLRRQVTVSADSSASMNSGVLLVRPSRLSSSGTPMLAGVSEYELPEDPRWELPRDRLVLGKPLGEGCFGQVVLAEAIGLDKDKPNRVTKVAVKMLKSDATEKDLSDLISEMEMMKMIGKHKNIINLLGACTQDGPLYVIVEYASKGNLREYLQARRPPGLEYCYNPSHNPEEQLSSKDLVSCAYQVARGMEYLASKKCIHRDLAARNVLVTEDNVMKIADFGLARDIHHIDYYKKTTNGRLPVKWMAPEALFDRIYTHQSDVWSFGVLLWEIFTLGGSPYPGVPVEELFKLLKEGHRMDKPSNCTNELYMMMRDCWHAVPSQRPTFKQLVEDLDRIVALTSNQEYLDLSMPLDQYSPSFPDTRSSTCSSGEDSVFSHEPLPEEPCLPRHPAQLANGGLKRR
row,Sequence,phosphorylation enrichment
1,ESAAIYNPVIF [RHO_Y301_K296E_YF],0.673
2,IKKFKYGIEEH [GJA1_Y137],0.4
3,PMQLPHDSTWE [PDGFRB_Y589_Y589H],0.66
4,LRWREYQRQDF [PRKRIP1_Y90_R87W_YF],2.28
5,KVDKEYEVGVR [GHR_Y226_R229G],0.472
6,GIVKAYYVHAR [AIPL1_Y267_R270H],0.482
7,VFAADYFKLLG [ROR2_Y645_YF],7.25
8,SSYPDYLAAVD [GLB1_Y154_D151Y],0.647
9,EESSHYSTEKE [ADAR_Y587],0.597
10,NGRQCYSCKGN [PLAUR_Y217],0.381
11,TTKGSYSLFVR [HCK_Y180_S183Y_YF],0.383
12,FLAVGYHKPFI [IDS_Y225_H229Y_YF],0.381
13,QDDFSYPSRQM [LDLR_Y847_G844D_YF],0.425
14,EVLKNYNQQKD [GOLGA4_Y1551],0.565
15,LSQDVYEEDSY [RET_Y900_R897Q],0.695
16,IDDNQYAFLKA [HNF4A_Y286_E285Q_YF],2.5
17,CTNPRYLAAGS [RABL3_Y185],0.507

row,Sequence,phosphorylation enrichment
1,TLSGIYQFIIA [FOXL2_Y81_YF],10.4
2,RPSRQYATRDV [SCAMP3_Y35_L38R],0.473
3,TCFDKYTGSTY [FN1_Y101_N104S],0.556
4,ASLEAYCKHKF [RXRA_Y403_YF],0.654
5,TARREYMHSPS [CPOX_Y429_W427R],0.349
6,PEACDYGLGGG [GSTO1_Y239],1.19
7,RFLERYIFNRQ [HLA-DPB1_Y57_E62Q_YF],0.448
8,DDPRTYQKFGF [OAS1_Y362_R361T_YF],0.473
9,LIYTNYEVGKD [GSTP1_Y112_A114V],7.05
10,ANNEFYFRVCA,0.445
11,TRDVNYGWTIR [MT-CYB_Y75_I78T],0.46
12,LGKGSYAKVKS [TSSK2_Y23],0.955
13,FAFQLYDLDPD [CHP2_Y123_R127P_YF],0.568
14,EKEQNYDLTEV [ECD_Y448],0.655
15,GMTLSYLFREP [NDUFS8_Y74],0.606
16,SAGSSYSISSI [PAX5_Y179_G183S],0.368

# Tested on: Fer (mouse)
# Assay: as above
row,Sequence,phosphorylation enrichment
1,ESAAIYNPVIF [RHO_Y301_K296E_YF],17.2
2,IKKFKYGIEEH [GJA1_Y137],0.382
3,PMQLPHDSTWE [PDGFRB_Y589_Y589H],0.737
4,LRWREYQRQDF [PRKRIP1_Y90_R87W_YF],1.67
5,KVDKEYEVGVR [GHR_Y226_R229G],0.398
6,GIVKAYYVHAR [AIPL1_Y267_R270H],0.452
7,VFAADYFKLLG [ROR2_Y645_YF],0.467
8,SSYPDYLAAVD [GLB1_Y154_D151Y],0.495
9,EESSHYSTEKE [ADAR_Y587],0.531
10,NGRQCYSCKGN [PLAUR_Y217],0.377
11,TTKGSYSLFVR [HCK_Y180_S183Y_YF],0.43
12,FLAVGYHKPFI [IDS_Y225_H229Y_YF],0.435
13,QDDFSYPSRQM [LDLR_Y847_G844D_YF],0.492
14,EVLKNYNQQKD [GOLGA4_Y1551],0.552
15,LSQDVYEEDSY [RET_Y900_R897Q],0.835
16,IDDNQYAFLKA [HNF4A_Y286_E285Q_YF],0.852
17,CTNPRYLAAGS [RABL3_Y185],0.629

row,Sequence,phosphorylation enrichment
1,TLSGIYQFIIA [FOXL2_Y81_YF],15
2,RPSRQYATRDV [SCAMP3_Y35_L38R],0.381
3,TCFDKYTGSTY [FN1_Y101_N104S],0.418
4,ASLEAYCKHKF [RXRA_Y403_YF],0.585
5,TARREYMHSPS [CPOX_Y429_W427R],0.396
6,PEACDYGLGGG [GSTO1_Y239],0.656
7,RFLERYIFNRQ [HLA-DPB1_Y57_E62Q_YF],0.75
8,DDPRTYQKFGF [OAS1_Y362_R361T_YF],0.423
9,LIYTNYEVGKD [GSTP1_Y112_A114V],17.7
10,ANNEFYFRVCA,0.536
11,TRDVNYGWTIR [MT-CYB_Y75_I78T],0.588
12,LGKGSYAKVKS [TSSK2_Y23],0.693
13,FAFQLYDLDPD [CHP2_Y123_R127P_YF],0.62
14,EKEQNYDLTEV [ECD_Y448],0.694
15,GMTLSYLFREP [NDUFS8_Y74],0.367
16,SAGSSYSISSI [PAX5_Y179_G183S],0.385

# Molecular target: EPHB1 (UniProt P54762)
# Assay: as above
# Sequence of EPHB1 (P54762 whole entry, looked up): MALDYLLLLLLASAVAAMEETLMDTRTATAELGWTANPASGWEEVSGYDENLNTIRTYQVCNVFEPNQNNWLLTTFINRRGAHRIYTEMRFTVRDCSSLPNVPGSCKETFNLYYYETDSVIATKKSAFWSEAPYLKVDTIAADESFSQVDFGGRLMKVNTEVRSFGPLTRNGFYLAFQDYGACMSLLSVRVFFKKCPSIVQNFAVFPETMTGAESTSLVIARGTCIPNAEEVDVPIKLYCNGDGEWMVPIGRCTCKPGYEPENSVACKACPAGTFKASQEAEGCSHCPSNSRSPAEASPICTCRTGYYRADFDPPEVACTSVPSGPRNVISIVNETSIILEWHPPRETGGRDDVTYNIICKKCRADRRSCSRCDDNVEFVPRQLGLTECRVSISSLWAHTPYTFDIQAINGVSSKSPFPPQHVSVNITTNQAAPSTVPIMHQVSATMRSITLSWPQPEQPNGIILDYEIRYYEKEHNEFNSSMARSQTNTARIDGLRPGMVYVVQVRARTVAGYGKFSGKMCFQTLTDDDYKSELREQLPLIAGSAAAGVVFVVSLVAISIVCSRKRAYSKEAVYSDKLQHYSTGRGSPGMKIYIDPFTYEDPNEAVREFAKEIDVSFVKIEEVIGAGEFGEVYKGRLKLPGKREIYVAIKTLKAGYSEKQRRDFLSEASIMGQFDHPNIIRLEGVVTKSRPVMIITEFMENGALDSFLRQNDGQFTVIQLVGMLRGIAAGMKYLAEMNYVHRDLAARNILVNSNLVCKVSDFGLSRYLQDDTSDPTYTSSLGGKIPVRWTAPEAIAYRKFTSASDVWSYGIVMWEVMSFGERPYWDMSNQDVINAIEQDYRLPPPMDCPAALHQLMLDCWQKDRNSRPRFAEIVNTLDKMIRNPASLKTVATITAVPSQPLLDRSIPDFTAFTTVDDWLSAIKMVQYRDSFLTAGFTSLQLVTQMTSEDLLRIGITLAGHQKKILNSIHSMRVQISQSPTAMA
row,Sequence,phosphorylation enrichment
1,ESAAIYNPVIF [RHO_Y301_K296E_YF],0.452
2,IKKFKYGIEEH [GJA1_Y137],0.42
3,PMQLPHDSTWE [PDGFRB_Y589_Y589H],0.829
4,LRWREYQRQDF [PRKRIP1_Y90_R87W_YF],1.91
5,KVDKEYEVGVR [GHR_Y226_R229G],0.434
6,GIVKAYYVHAR [AIPL1_Y267_R270H],0.498
7,VFAADYFKLLG [ROR2_Y645_YF],0.52
8,SSYPDYLAAVD [GLB1_Y154_D151Y],0.518
9,EESSHYSTEKE [ADAR_Y587],0.621
10,NGRQCYSCKGN [PLAUR_Y217],0.266
11,TTKGSYSLFVR [HCK_Y180_S183Y_YF],0.351
12,FLAVGYHKPFI [IDS_Y225_H229Y_YF],0.359
13,QDDFSYPSRQM [LDLR_Y847_G844D_YF],0.549
14,EVLKNYNQQKD [GOLGA4_Y1551],0.504
15,LSQDVYEEDSY [RET_Y900_R897Q],0.966
16,IDDNQYAFLKA [HNF4A_Y286_E285Q_YF],0.494
17,CTNPRYLAAGS [RABL3_Y185],0.496

row,Sequence,phosphorylation enrichment
1,TLSGIYQFIIA [FOXL2_Y81_YF],14.2
2,RPSRQYATRDV [SCAMP3_Y35_L38R],0.366
3,TCFDKYTGSTY [FN1_Y101_N104S],0.442
4,ASLEAYCKHKF [RXRA_Y403_YF],0.572
5,TARREYMHSPS [CPOX_Y429_W427R],0.345
6,PEACDYGLGGG [GSTO1_Y239],1.38
7,RFLERYIFNRQ [HLA-DPB1_Y57_E62Q_YF],0.603
8,DDPRTYQKFGF [OAS1_Y362_R361T_YF],0.519
9,LIYTNYEVGKD [GSTP1_Y112_A114V],13.4
10,ANNEFYFRVCA,0.563
11,TRDVNYGWTIR [MT-CYB_Y75_I78T],0.544
12,LGKGSYAKVKS [TSSK2_Y23],0.482
13,FAFQLYDLDPD [CHP2_Y123_R127P_YF],0.981
14,EKEQNYDLTEV [ECD_Y448],0.569
15,GMTLSYLFREP [NDUFS8_Y74],0.501
16,SAGSSYSISSI [PAX5_Y179_G183S],0.41

# Molecular target: MERTK (UniProt Q12866)
# Assay: as above
# Sequence of MERTK (Q12866 whole entry, looked up): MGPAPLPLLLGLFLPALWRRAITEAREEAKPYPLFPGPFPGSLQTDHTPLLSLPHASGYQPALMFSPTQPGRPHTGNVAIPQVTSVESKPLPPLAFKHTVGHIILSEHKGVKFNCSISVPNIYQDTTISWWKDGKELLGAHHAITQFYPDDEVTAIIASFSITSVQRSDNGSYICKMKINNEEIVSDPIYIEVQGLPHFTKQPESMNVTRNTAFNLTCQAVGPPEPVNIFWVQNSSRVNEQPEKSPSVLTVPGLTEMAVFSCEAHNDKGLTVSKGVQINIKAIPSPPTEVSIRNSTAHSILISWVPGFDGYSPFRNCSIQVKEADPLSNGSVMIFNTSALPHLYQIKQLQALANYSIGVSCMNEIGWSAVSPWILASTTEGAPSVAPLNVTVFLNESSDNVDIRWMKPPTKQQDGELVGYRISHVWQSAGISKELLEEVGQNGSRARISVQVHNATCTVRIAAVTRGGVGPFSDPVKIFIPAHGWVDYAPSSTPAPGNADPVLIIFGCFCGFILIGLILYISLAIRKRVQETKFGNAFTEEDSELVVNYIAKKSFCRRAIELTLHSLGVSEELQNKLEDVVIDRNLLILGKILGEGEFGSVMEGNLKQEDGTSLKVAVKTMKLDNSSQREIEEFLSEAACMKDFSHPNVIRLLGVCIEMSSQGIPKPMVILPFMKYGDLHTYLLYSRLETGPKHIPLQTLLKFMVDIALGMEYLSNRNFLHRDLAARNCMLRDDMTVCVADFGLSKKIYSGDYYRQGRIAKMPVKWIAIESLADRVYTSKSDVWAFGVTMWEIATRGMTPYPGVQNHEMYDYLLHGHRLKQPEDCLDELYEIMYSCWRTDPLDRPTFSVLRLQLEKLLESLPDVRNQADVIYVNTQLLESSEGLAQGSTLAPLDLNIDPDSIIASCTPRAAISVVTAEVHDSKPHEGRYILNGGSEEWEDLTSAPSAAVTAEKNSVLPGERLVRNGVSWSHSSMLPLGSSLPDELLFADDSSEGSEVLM
row,Sequence,phosphorylation enrichment
1,ESAAIYNPVIF [RHO_Y301_K296E_YF],4.16
2,IKKFKYGIEEH [GJA1_Y137],0.323
3,PMQLPHDSTWE [PDGFRB_Y589_Y589H],0.531
4,LRWREYQRQDF [PRKRIP1_Y90_R87W_YF],1.69
5,KVDKEYEVGVR [GHR_Y226_R229G],0.41
6,GIVKAYYVHAR [AIPL1_Y267_R270H],0.436
7,VFAADYFKLLG [ROR2_Y645_YF],0.394
8,SSYPDYLAAVD [GLB1_Y154_D151Y],0.415
9,EESSHYSTEKE [ADAR_Y587],0.509
10,NGRQCYSCKGN [PLAUR_Y217],0.379
11,TTKGSYSLFVR [HCK_Y180_S183Y_YF],0.45
12,FLAVGYHKPFI [IDS_Y225_H229Y_YF],0.428
13,QDDFSYPSRQM [LDLR_Y847_G844D_YF],0.497
14,EVLKNYNQQKD [GOLGA4_Y1551],0.439
15,LSQDVYEEDSY [RET_Y900_R897Q],0.584
16,IDDNQYAFLKA [HNF4A_Y286_E285Q_YF],0.84
17,CTNPRYLAAGS [RABL3_Y185],0.415

row,Sequence,phosphorylation enrichment
1,TLSGIYQFIIA [FOXL2_Y81_YF],10.1
2,RPSRQYATRDV [SCAMP3_Y35_L38R],0.274
3,TCFDKYTGSTY [FN1_Y101_N104S],0.399
4,ASLEAYCKHKF [RXRA_Y403_YF],0.556
5,TARREYMHSPS [CPOX_Y429_W427R],0.43
6,PEACDYGLGGG [GSTO1_Y239],0.635
7,RFLERYIFNRQ [HLA-DPB1_Y57_E62Q_YF],0.756
8,DDPRTYQKFGF [OAS1_Y362_R361T_YF],0.439
9,LIYTNYEVGKD [GSTP1_Y112_A114V],11.3
10,ANNEFYFRVCA,0.44
11,TRDVNYGWTIR [MT-CYB_Y75_I78T],0.495
12,LGKGSYAKVKS [TSSK2_Y23],1.11
13,FAFQLYDLDPD [CHP2_Y123_R127P_YF],0.571
14,EKEQNYDLTEV [ECD_Y448],0.593
15,GMTLSYLFREP [NDUFS8_Y74],0.365
16,SAGSSYSISSI [PAX5_Y179_G183S],0.492

# Reference: the supplement of paper PMC10065799, “High-throughput profiling of sequence recognition by tyrosine kinases and SH2 domains using bacterial peptide display” (eLife, 2023)
